Test results published in paper PMC9404457 (Nature, 2022).

Target: T1, human FLAG-tagged PORCN (isoform B) (Homo sapiens, PORCN isoform B (Q9H237-2), strain)
T1 chain: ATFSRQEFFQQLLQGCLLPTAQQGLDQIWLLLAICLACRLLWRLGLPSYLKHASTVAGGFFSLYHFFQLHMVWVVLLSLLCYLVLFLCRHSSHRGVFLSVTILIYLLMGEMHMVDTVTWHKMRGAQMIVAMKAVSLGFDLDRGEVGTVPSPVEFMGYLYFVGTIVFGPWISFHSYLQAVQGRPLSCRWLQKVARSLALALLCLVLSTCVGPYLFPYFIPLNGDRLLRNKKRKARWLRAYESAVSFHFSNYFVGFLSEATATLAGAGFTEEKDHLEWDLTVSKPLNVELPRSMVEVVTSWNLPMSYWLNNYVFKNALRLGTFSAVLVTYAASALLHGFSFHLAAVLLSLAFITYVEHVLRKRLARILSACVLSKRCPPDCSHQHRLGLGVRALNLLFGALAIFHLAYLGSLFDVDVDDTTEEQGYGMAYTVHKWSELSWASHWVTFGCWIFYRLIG
Experiment: SEC

binding result: binds
B1: Fab^2C11 (Fab, V domains shown)
VH: EIQLQQSGAELVKPGASVKMSCKVSGYSFTGYNMNWVKQSHGKSLEWIGNINPYYVSTNYNQKFTGKATFTVDRSSSTAYMQLDSLTSEDSAVYYCARSYGSSHTFAYWGQGTLVTVSS
VL: DIHMTQSPASLSAFVGETVTITCRTSENIFSYLAWYQQKQGKSPQLLVYNAKTLTSGVPSRFSGSGSGTQFSLKINSLQPEDFGSYYCQHHYGSPYTFGGGTKLEIK
